Measurements taken from US10487116B2, “Immunotherapy against several tumors, such as lung cancer, including NSCLC” (IMMATICS BIOTECHNOLOGIES GMBH, priority 2013, dated 2019).

Target: HLA-A*0201 (Homo sapiens, UniProt P04439, D140Y/D185E/D98H/E176V/E277Q/G131W/G231S/I119V/I121R/I166T/I218V/L300P/L318F/N151K/N90K/P208A/P217A/Q86G/Q94H/R138H/R169H/T345S)
Test: UV-ligand exchange with ELISA of stabilized MHC complexes
Assay type: binding
Details: class symbol
Text: Candidate peptides for the vaccines according to the present invention were further tested for immunogenicity by in vitro priming assays. The individual peptide-MHC complexes required for these assays were produced by UV-ligand exchange, where a UV-sensitive peptide is cleaved upon UV-irradiation, and exchanged with the peptide of interest as analyzed. Only peptide candidates that can effectively bind and stabilize the peptide-receptive MHC molecules prevent dissociation of the MHC complexes. To determine the yield of the exchange reaction, an ELISA was performed based on the detection of the light chain (β2m) of stabilized MHC complexes. The assay was performed as generally described in Rodenko et al. (Rodenko B, Toebes M, Hadrup S R, van Esch W J, Molenaar A M, Schumacher T N, Ovaa H. Generation of peptide-MHC class I complexes through UV-mediated ligand exchange. Nat Protoc. 2006; 1(3):1120-32.).
96 well MAXISorp plates (NUNC) were coated over night with 2 ug/ml streptavidin in PBS at room temperature, washed 4× and blocked for 30 min at 37° C. in 2% BSA containing blocking buffer. Refolded HLA-A*0201/MLA-001 monomers served as standards, covering the range of 8-500 ng/ml. Peptide-MHC monomers of the UV-exchange reaction were diluted 100 fold in blocking buffer. Samples were incubated for 1 h at 37° C., washed four times, incubated with 2 ug/ml HRP conjugated anti-β2m for 1 h at 37° C., washed again and detected with TMB solution that is stopped with […]. Absorption was measured at 450 nm.

Exchange yield | Sequence
+++ (50%-70%, +++) | ALASVIKEL (listed as Homo sapiens) [SEQ ID NO 89]
++ (20%-49% = ++) | ALDENLHQL (listed as Homo sapiens) [SEQ ID NO 3]
+++ (50%-70%, +++) | ALFPHLLQPV (listed as Homo sapiens) [SEQ ID NO 43]
++++ (>70 = ++++) | ALLRTVVSV (listed as Homo sapiens) [SEQ ID NO 33]
++++ (>70 = ++++) | ALMDKEGLTAL (listed as Homo sapiens) [SEQ ID NO 9]
++ (20%-49% = ++) | ALVDHTPYL (listed as Homo sapiens) [SEQ ID NO 20]
+++ (50%-70%, +++) | ALWEKNTHL (listed as Homo sapiens) [SEQ ID NO 82]
++ (20%-49% = ++) | ALYDSVILL (listed as Homo sapiens) [SEQ ID NO 75]
++++ (>70 = ++++) | ALYGRLEVV (listed as Homo sapiens) [SEQ ID NO 81]
+++ (50%-70%, +++) | AMATESILHFA (listed as Homo sapiens) [SEQ ID NO 86]
+++ (50%-70%, +++) | AMFENFVSV (listed as Homo sapiens) [SEQ ID NO 91]
++ (20%-49% = ++) | AMLAVLHTV (listed as Homo sapiens) [SEQ ID NO 64]
++ (20%-49% = ++) | AMSSKFFLV (listed as Homo sapiens) [SEQ ID NO 69]
+++ (50%-70%, +++) | AVVEFLTSV (listed as Homo sapiens) [SEQ ID NO 19]
+++ (50%-70%, +++) | FLHHLEIEL (listed as Homo sapiens) [SEQ ID NO 23]
+++ (50%-70%, +++) | FLIPIYHQV (listed as Homo sapiens) [SEQ ID NO 22]
++++ (>70 = ++++) | FLLDGSANV (listed as Homo sapiens) [SEQ ID NO 73]
+++ (50%-70%, +++) | FLVDGSWSV (listed as Homo sapiens) [SEQ ID NO 24]
++++ (>70 = ++++) | FQYDHEAFL (listed as Homo sapiens) [SEQ ID NO 14]

Exchange yield | Sequence
++ (20%-49% = ++) | GLAEDIDKGEV (listed as Homo sapiens) [SEQ ID NO 57]
+++ (50%-70%, +++) | GLIEIISNA (listed as Homo sapiens) [SEQ ID NO 48]
+++ (50%-70%, +++) | GLTDNIHLV (listed as Homo sapiens) [SEQ ID NO 40]
+++ (50%-70%, +++) | GLYPDAFAPV (listed as Homo sapiens) [SEQ ID NO 25]
++++ (>70 = ++++) | GVLENIFGV (listed as Homo sapiens) [SEQ ID NO 47]
++ (20%-49% = ++) | HLLEDIAHV (listed as Homo sapiens) [SEQ ID NO 92]
++++ (>70 = ++++) | ILFEINPKL (listed as Homo sapiens) [SEQ ID NO 1]
++++ (>70 = ++++) | ILFPDIIARA (listed as Homo sapiens) [SEQ ID NO 62]
++ (20%-49% = ++) | ILMGTELTQV (listed as Homo sapiens) [SEQ ID NO 84]
++ (20%-49% = ++) | ILQDRLNQV (listed as Homo sapiens) [SEQ ID NO 67]
++++ (>70 = ++++) | ILVSWLPRL (listed as Homo sapiens) [SEQ ID NO 59]
+++ (50%-70%, +++) | KILEDVVGV (listed as Homo sapiens) [SEQ ID NO 70]
++ (20%-49% = ++) | KIQEILTQV (listed as Homo sapiens) [SEQ ID NO 66]
+++ (50%-70%, +++) | KIQEMQHFL (listed as Homo sapiens) [SEQ ID NO 2]
+++ (50%-70%, +++) | KIVDFSYSV (listed as Homo sapiens) [SEQ ID NO 85]
++ (20%-49% = ++) | KIYNEFISV (listed as Homo sapiens) [SEQ ID NO 30]
++ (20%-49% = ++) | KLAVALLAA (listed as Homo sapiens) [SEQ ID NO 15]
+++ (50%-70%, +++) | KLDETNNTL (listed as Homo sapiens) [SEQ ID NO 6]
++ (20%-49% = ++) | KLFGEKTYL (listed as Homo sapiens) [SEQ ID NO 26]
